According to the supplement of paper PMC7125110:
± gives the standard error. For some of these results: Variants at the floor of the assay were thinned out.

B1: glmS ribozyme (parent)
chain: AUAAAAGCGCCAGAACUACAGAAAUGUAGUUGACGAGGAGGAGGUUUAUCGAAUUUUCGGCGGAUGCCUCCAAA

Experiments:
Conditions in all cases: with glucosamine-6-phosphate
glucosamine-6-phosphate [1] = variants of: B1; assay: kcat; higher = faster cleavage; RNA array
In short: (§1)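 Sequenced MiSeq chips were the platform: E. coli RNA polymerase transcribed barcoded ribozyme variants on them in situ, and a hybridised Cy3 probe tracked these at 37 °C. After glucosamine-6-phosphate (40 μM to 10 mM) in HEPES/KCl/Mg(OAc)2 buffer was flowed in, tiles were imaged over ~14 h. Signals normalised to baseline and to non-cleaving reference variants were reduced to per-tile medians and fit to one- or two-exponential decays to obtain kobs. kcat and KM were derived through weighted Michaelis–Menten fits across concentrations.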

glucosamine-6-phosphate [2] = variants of: B1; assay: self-cleavage kobs at 10000 uM GlcN6P; higher = faster cleavage; RNA array
In short: as §1

glucosamine-6-phosphate [3] = variants of: B1; assay: KM; higher = weaker cofactor use; RNA array
In short: as §1

glucosamine-6-phosphate [4] = variants of: B1; assay: self-cleavage kobs at 40 uM GlcN6P; higher = faster cleavage; RNA array
In short: as §1

glucosamine-6-phosphate [5] = variants of: B1; assay: self-cleavage kobs at 160 uM GlcN6P; higher = faster cleavage; RNA array
In short: as §1

glucosamine-6-phosphate [6] = variants of: B1; assay: self-cleavage kobs at 640 uM GlcN6P; higher = faster cleavage; RNA array
In short: as §1

glucosamine-6-phosphate [7] = variants of: B1; assay: self-cleavage kobs at 2500 uM GlcN6P; higher = faster cleavage; RNA array
In short: as §1

| Variant | kcat (glucosamine-6-phosphate [1]) | self-cleavage kobs at 10000 uM GlcN6P (glucosamine-6-phosphate [2]) | KM (glucosamine-6-phosphate [3]) | self-cleavage kobs at 40 uM GlcN6P (glucosamine-6-phosphate [4]) | self-cleavage kobs at 160 uM GlcN6P (glucosamine-6-phosphate [5]) | self-cleavage kobs at 640 uM GlcN6P (glucosamine-6-phosphate [6]) | self-cleavage kobs at 2500 uM GlcN6P (glucosamine-6-phosphate [7]) |
| --- | --- | --- | --- | --- | --- | --- | --- |
| G29A G38C | < 1e-05 s⁻¹ | < 1e-05 s⁻¹ | – | – | – | – | – |
| G29C C71U | 0.00146 ± 0.0004 s⁻¹ | 0.00143 ± 0.00015 s⁻¹ | 1590 ± 700 µM | 6.23e-05 ± 7.6e-06 s⁻¹ | 0.000119 ± 1.8e-05 s⁻¹ | 0.000356 ± 4.9e-05 s⁻¹ | 0.000805 ± 9.7e-05 s⁻¹ |
| U30C A53U | 0.000197 ± 3.1e-05 s⁻¹ | 0.000159 ± 1.8e-05 s⁻¹ | 1290 ± 540 µM | – | – | 5.5e-05 ± 1e-05 s⁻¹ | 0.000158 ± 1.5e-05 s⁻¹ |
| U30A | 0.0142 ± 0.0014 s⁻¹ | 0.0114 ± 0.00039 s⁻¹ | 2550 ± 310 µM | 0.000227 ± 5e-06 s⁻¹ | 0.000758 ± 6.8e-05 s⁻¹ | 0.00244 ± 0.00012 s⁻¹ | 0.00727 ± 0.00029 s⁻¹ |
| U30C | 0.000469 ± 2.4e-05 s⁻¹ | 0.000395 ± 6.5e-06 s⁻¹ | 1950 ± 180 µM | – | 4.18e-05 ± 1.9e-06 s⁻¹ | 0.000113 ± 2e-06 s⁻¹ | 0.000759 ± 0.00027 s⁻¹ |
| G26U A48C | 0.000587 ± 6e-05 s⁻¹ | 0.000394 ± 7.4e-05 s⁻¹ | 4480 ± 710 µM | – | – | 7.06e-05 ± 1.4e-05 s⁻¹ | 0.000222 ± 3.5e-05 s⁻¹ |
| G29C G66C | 2.22e-05 ± 9.6e-06 s⁻¹ | – | – | – | – | – | – |
| C16U U30A G40A | 0.000118 ± 1.8e-05 s⁻¹ | – | 1030 ± 380 µM | < 1e-05 s⁻¹ | – | 4.8e-05 ± 2e-05 s⁻¹ | 8.29e-05 ± 2.2e-05 s⁻¹ |
| C16U U46G | 0.00589 ± 0.00074 s⁻¹ | 0.00531 ± 0.00055 s⁻¹ | 1810 ± 320 µM | 0.00014 ± 1.3e-05 s⁻¹ | 0.000489 ± 8.8e-05 s⁻¹ | 0.00131 ± 0.00016 s⁻¹ | 0.00323 ± 0.0005 s⁻¹ |
| G29C G40C | 9.96e-05 ± 4.4e-06 s⁻¹ | 8.84e-05 ± 1.8e-05 s⁻¹ | 1020 ± 150 µM | – | – | 3.65e-05 ± 1.5e-05 s⁻¹ | 7.4e-05 ± 1.6e-05 s⁻¹ |
| C16U A52U | 0.00041 ± 1.4e-05 s⁻¹ | 0.000274 ± 2.9e-05 s⁻¹ | 5030 ± 320 µM | < 1e-05 s⁻¹ | – | 4.82e-05 ± 1.2e-05 s⁻¹ | 0.000132 ± 2.2e-05 s⁻¹ |
| C16U A52C | 1.88e-05 ± 3.1e-06 s⁻¹ | – | – | – | – | – | – |
| C16U A52G | 0.00224 ± 0.00092 s⁻¹ | 0.0016 ± 0.00017 s⁻¹ | – | 3.86e-05 ± 9e-06 s⁻¹ | 9.03e-05 ± 2.1e-05 s⁻¹ | 0.000237 ± 5.8e-05 s⁻¹ | 0.000576 ± 7.9e-05 s⁻¹ |
| G29U U49A | < 1e-05 s⁻¹ | < 1e-05 s⁻¹ | – | < 1e-05 s⁻¹ | < 1e-05 s⁻¹ | – | – |
| G29U U49G | 0.000125 ± 2e-05 s⁻¹ | 8.25e-05 ± 1.9e-05 s⁻¹ | 5270 ± 1900 µM | – | – | – | 3.79e-05 ± 1.7e-05 s⁻¹ |
| A23C C70A | 0.000172 ± 3.1e-05 s⁻¹ | 0.000156 ± 3.2e-05 s⁻¹ | 139 ± 68 µM | 3.76e-05 ± 1.2e-05 s⁻¹ | – | – | 0.000302 ± 0.0001 s⁻¹ |

| Variant | kcat (glucosamine-6-phosphate [1]) | self-cleavage kobs at 10000 uM GlcN6P (glucosamine-6-phosphate [2]) | KM (glucosamine-6-phosphate [3]) | self-cleavage kobs at 40 uM GlcN6P (glucosamine-6-phosphate [4]) | self-cleavage kobs at 160 uM GlcN6P (glucosamine-6-phosphate [5]) | self-cleavage kobs at 640 uM GlcN6P (glucosamine-6-phosphate [6]) | self-cleavage kobs at 2500 uM GlcN6P (glucosamine-6-phosphate [7]) |
| --- | --- | --- | --- | --- | --- | --- | --- |
| G29A U31A | 0.00193 ± 0.00042 s⁻¹ | 0.00165 ± 0.00037 s⁻¹ | 1110 ± 410 µM | 6.33e-05 ± 1.9e-05 s⁻¹ | 0.000184 ± 7.5e-05 s⁻¹ | 0.00109 ± 0.00022 s⁻¹ | 0.00129 ± 0.00029 s⁻¹ |
| C16U C50A | 2.89e-05 ± 7.6e-06 s⁻¹ | 2.32e-05 ± 1.1e-05 s⁻¹ | – | – | – | – | 4.91e-05 ± 1.8e-05 s⁻¹ |
| G29C C67A C71U | 0.0001 ± 1.5e-05 s⁻¹ | 0.000106 ± 1.9e-05 s⁻¹ | – | – | – | 0.000116 ± 2.2e-05 s⁻¹ | 7.49e-05 ± 1.9e-05 s⁻¹ |
| C16U U55C C70U | 0.000581 ± 5.6e-05 s⁻¹ | 0.000482 ± 9.6e-05 s⁻¹ | 2450 ± 440 µM | – | – | 0.000125 ± 2.7e-05 s⁻¹ | 0.000261 ± 7.6e-05 s⁻¹ |
| G29U C58G | 8.52e-05 ± 7.7e-06 s⁻¹ | 7.67e-05 ± 9.9e-06 s⁻¹ | 752 ± 370 µM | – | – | 3.31e-05 ± 1.6e-05 s⁻¹ | 8.3e-05 ± 1.9e-05 s⁻¹ |
| G29U C58A | 0.000289 ± 9.9e-05 s⁻¹ | 0.000231 ± 3e-05 s⁻¹ | – | – | 3.39e-05 ± 1.2e-05 s⁻¹ | 5.13e-05 ± 1e-05 s⁻¹ | 0.000103 ± 1e-05 s⁻¹ |
| G29U A42G | 0.00693 ± 0.0016 s⁻¹ | 0.00626 ± 0.0011 s⁻¹ | 1770 ± 660 µM | 0.000272 ± 0.00011 s⁻¹ | 0.000486 ± 0.00015 s⁻¹ | 0.00202 ± 0.00037 s⁻¹ | – |
| U30A U55C G66C | 8.18e-05 ± 2.7e-05 s⁻¹ | 6.89e-05 ± 1.1e-05 s⁻¹ | – | – | – | – | 0.000101 ± 2e-05 s⁻¹ |
| G29C G32A | 0.00108 ± 0.00019 s⁻¹ | 0.0009 ± 0.00015 s⁻¹ | 1960 ± 740 µM | 3.72e-05 ± 1.5e-05 s⁻¹ | – | 0.000251 ± 8.5e-05 s⁻¹ | 0.000762 ± 0.00038 s⁻¹ |
| G29C G32U | 0.000823 ± 0.00021 s⁻¹ | 0.000448 ± 0.00016 s⁻¹ | 7540 ± 2900 µM | – | – | – | 0.000226 ± 6.2e-05 s⁻¹ |
| G29U C67A | 0.000685 ± 0.00017 s⁻¹ | 0.000787 ± 8.4e-05 s⁻¹ | 812 ± 370 µM | 5.58e-05 ± 7.8e-06 s⁻¹ | 9.85e-05 ± 1.4e-05 s⁻¹ | 0.000276 ± 3.9e-05 s⁻¹ | 0.000437 ± 5.6e-05 s⁻¹ |
| C16U G59U | 4.21e-05 ± 7.7e-06 s⁻¹ | 3.73e-05 ± 7.2e-06 s⁻¹ | – | – | – | – | 4.99e-05 ± 1.2e-05 s⁻¹ |
| U30A C50U | 1.13e-05 ± 4.2e-06 s⁻¹ | – | – | – | – | – | – |
| U30A A53C | 0.00232 ± 0.00044 s⁻¹ | 0.00196 ± 0.00049 s⁻¹ | 3590 ± 950 µM | – | 0.000107 ± 2.5e-05 s⁻¹ | 0.000357 ± 6.9e-05 s⁻¹ | 0.000882 ± 0.00014 s⁻¹ |
| G29U U30G | 0.00393 ± 0.0013 s⁻¹ | 0.00493 ± 0.001 s⁻¹ | 1780 ± 820 µM | 9.59e-05 ± 1.7e-05 s⁻¹ | 0.000286 ± 5.6e-05 s⁻¹ | 0.00131 ± 0.00023 s⁻¹ | 0.00182 ± 0.00035 s⁻¹ |
